Test results as given in US20170313769A1 (Pfizer, published 2017).

Columns and labels:
[1] = biological target: T1, Human IFNβ (mature human interferon beta) (human, UniProt P01574 22-187); assay: cell-based or functional assay
CID1285 = biological target: T2, CID1285 (human (IFNβ with IFNα sequence inserted), UniProt P01574 22-187); assay: cell-based or functional assay
T2 chain: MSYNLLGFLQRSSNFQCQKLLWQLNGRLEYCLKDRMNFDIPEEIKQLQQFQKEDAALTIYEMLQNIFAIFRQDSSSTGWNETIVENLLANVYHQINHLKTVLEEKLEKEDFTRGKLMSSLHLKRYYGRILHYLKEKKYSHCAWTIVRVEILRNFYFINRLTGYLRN

CID1276 = biological target: T3, CID1276 (human (IFNβ with IFNα sequence inserted), UniProt P01574 22-187); assay: cell-based or functional assay
T3 chain: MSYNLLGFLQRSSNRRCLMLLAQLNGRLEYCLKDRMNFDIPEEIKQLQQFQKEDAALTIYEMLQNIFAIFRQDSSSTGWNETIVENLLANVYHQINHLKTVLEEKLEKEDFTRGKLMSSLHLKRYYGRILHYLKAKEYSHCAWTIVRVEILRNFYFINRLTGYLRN

CID1287 = biological target: T4, CID1287 (human (IFNβ with IFNα sequence inserted), UniProt P01574 22-187); assay: cell-based or functional assay
T4 chain: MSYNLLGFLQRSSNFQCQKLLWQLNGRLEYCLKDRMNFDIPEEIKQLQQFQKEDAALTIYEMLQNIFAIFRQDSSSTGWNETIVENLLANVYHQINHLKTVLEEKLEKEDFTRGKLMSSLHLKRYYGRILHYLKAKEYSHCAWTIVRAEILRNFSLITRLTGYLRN

[2] = biological target: T1, Human IFNβ (mature human interferon …); assay: Octet (BLI) response rank; method not described

T1 sequence (P01574 22-187): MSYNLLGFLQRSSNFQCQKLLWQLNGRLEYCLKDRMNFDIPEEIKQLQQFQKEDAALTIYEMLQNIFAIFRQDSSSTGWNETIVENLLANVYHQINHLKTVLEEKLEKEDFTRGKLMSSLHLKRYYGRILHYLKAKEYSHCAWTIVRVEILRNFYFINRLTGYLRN

- IC50 (pM) ISRE Neutralization [1]: 2 pM
- IC50 (pM) pSTAT1 Inhibition [1]: 4 pM
- IC50 (nM), neutralization of type I IFN-induced STAT1 phosphorylation (CID1285): 0.4 nM
- IC50 (nM), neutralization of type I IFN-induced STAT1 phosphorylation (CID1276): 0.2 nM
- IC50 (nM), neutralization of type I IFN-induced STAT1 phosphorylation (CID1287): 0.3 nM
- Response rank (Octet) [2]: 1 rank
B1: CTI-AF1 (antibody, human IgG1, kappa, V domains shown)
VH: QVQLVQSGAEVKKPGSSVKVSCKASGYTFSRYWMHWVRQAPGQGLEWMGHIDPSDSYTYYNQKFKGRVTITADESTSTAYMELSSLRSEDTAVYYCARWDYGNLLFEYWGQGTLVTVSS
VL: DIQMTQSPSSLSASVGDRVTITCRTSQDIGNYLNWYQQKPGKAFKLLIYSTSRLHSGVPSRFSGSGSGTDFTLTISSLQPEDFATYYCQQGIILPITFGGGTKVEIKR
notes: Humanized IgG1; The C-terminal K of the heavy chain is printed as optional, '(K)'; also called anti-IFNβ antibody; humanized IgG1 antibody against interferon beta
